Patent publication US20180193413A1 (UNIVERSITY OF BRITISH COLUMBIA, published 2018)
Bridges are numbered along the chain shown (N, C = ends). Where no end group is shown, it is not given here.

What was measured:
[1] = target: T1, Human pancreatic α-amylase (human, UniProt P04746 16-511); experiment: enzyme kinetics (CNP-G3 hydrolysis), Morrison tight-binding fit, competitive inhibition; recombinant helianthamide
T1 construct: Recombinant, secreted from Pichia pastoris, purified and deglycosylated; also called HPA; human pancreatic alpha amylase
T1 sequence: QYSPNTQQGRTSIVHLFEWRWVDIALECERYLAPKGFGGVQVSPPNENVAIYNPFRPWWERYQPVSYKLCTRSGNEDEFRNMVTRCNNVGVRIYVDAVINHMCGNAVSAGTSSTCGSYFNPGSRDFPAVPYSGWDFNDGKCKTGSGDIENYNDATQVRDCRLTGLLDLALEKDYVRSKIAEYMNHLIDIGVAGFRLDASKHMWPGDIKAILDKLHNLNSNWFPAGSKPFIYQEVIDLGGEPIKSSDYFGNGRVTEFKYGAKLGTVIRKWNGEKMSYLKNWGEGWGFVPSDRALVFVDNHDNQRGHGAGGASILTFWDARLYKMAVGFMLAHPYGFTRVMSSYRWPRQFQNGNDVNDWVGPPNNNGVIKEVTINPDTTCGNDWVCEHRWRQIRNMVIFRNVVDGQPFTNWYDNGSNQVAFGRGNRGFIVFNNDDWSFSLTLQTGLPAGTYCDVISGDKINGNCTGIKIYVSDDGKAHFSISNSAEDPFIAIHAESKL

[2] = target: T2, Porcine pancreatic α-amylase (porcine, UniProt P00690 16-511); experiment: enzyme kinetics, inhibition of glycosidase activity
T2 construct: Bought enzyme; also called PPA
T2 sequence: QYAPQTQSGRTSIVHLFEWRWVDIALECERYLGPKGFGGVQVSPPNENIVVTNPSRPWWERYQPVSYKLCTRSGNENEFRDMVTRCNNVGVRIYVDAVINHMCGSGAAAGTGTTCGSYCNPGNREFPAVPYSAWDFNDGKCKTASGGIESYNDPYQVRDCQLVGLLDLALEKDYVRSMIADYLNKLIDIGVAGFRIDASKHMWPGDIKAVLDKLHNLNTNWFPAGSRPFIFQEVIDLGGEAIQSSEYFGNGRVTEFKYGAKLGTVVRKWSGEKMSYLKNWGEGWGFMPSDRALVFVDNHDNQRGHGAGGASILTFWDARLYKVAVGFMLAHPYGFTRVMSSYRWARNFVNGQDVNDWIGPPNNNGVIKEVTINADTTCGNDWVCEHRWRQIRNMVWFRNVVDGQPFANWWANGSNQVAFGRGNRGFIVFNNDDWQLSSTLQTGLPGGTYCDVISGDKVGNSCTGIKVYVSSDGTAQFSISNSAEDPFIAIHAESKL

T163R HPA mutant [3] = target: T3, T163R HPA mutant (human, UniProt P04746 16-511); experiment: enzyme kinetics (CNP-G3 hydrolysis), uncleaved bar′ fusion
T3 construct: it may be shifted against the precursor entry
T3 sequence: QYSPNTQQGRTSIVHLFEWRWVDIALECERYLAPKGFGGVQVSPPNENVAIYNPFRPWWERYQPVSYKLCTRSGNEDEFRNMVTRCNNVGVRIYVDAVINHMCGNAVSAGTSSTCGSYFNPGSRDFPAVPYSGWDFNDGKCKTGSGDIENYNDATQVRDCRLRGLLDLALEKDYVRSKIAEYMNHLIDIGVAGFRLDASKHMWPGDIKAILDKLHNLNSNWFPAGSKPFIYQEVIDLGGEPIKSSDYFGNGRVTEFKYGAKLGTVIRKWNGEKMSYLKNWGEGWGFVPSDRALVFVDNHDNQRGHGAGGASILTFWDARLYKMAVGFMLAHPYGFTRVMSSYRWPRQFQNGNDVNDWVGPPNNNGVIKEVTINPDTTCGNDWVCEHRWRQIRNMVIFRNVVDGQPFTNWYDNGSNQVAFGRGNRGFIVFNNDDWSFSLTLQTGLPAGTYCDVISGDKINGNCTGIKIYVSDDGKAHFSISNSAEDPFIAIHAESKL

[4] = target: T1, Human pancreatic α-amylase; experiment: as above
[5] = target: T1, Human pancreatic α-amylase; experiment: enzyme kinetics, Ki of bar′ fusion mutants against HPA
T163R HPA mutant [6] = target: T3, T163R HPA mutant; experiment: enzyme kinetics, Ki against T163R HPA compared with HPA

B1: Helianthamide (peptide)
peptide: ESGNSCYIYHGVSGICKASCAEDEKAMAGMGVCEGHLCCYKTPW
modifications: disulfide 16-33, 20-39, 6-38
notes: 44-residue peptide with three disulfide bonds in a 1-5, 2-4, 3-6 pattern (C6-C38, C16-C33, C20-C39); crystal structure with PPA; also called recombinant Helianthamide; synthetic Helianthamide
Which results are given for B1?
Ki [1]: 0.01 nM; Ki [2]: 0.1 nM

B2: Bar′-H10A (other)
chain: ESGNSCYIYAGVSGICKASCAEDEKAMAGMGVCEGHLCCYKTPW
modifications: not fully specified (N-terminus); ends and bridges not checked
notes: Tested as uncleaved fusion; also called H10A mutant of Helianthamide in bar′-Helianthamide fusion form
How did the Ki (T163R HPA mutant [3]) turn out when B2 was run?
The Ki was 321 nM.

What about the Ki [4] of the same binder?
Its Ki is 15 nM.

B3: Bar′-Y9A (other)
chain: ESGNSCYIAHGVSGICKASCAEDEKAMAGMGVCEGHLCCYKTPW
modifications: not fully specified (N-terminus); ends and bridges not checked
notes: Tested as uncleaved fusion; also called Y9A mutant of Helianthamide in bar′-Helianthamide fusion form
Which results are given for B3?
Ki (T163R HPA mutant [3]): 960 nM; Ki [4]: 47 nM; fold decrease in potency (against the bar′-Helianthamide fusion) [5]: 50 fold

B4: bar′-Helianthamide fusion (other)
chain: ESGNSCYIYHGVSGICKASCAEDEKAMAGMGVCEGHLCCYKTPW
modifications: not fully specified (N-terminus); ends and bridges not checked
notes: Uncleaved fusion secreted from E. coli BL21*(DE3), purified on nickel; The text says that the junction is a TEV site; also called barnase′-helianthamide
For B4, which Ki (T163R HPA mutant [3]) is on record?
Its Ki is 20 nM.

What about the Ki [4] of the same binder?
Its Ki is 0.9 nM.

What about the “fold decrease in potency (against wild-type HPA)” value (T163R HPA mutant [6]) of the same binder?
Its value is 20 fold.

B5: Bar′-Y7A (other)
chain: ESGNSCAIYHGVSGICKASCAEDEKAMAGMGVCEGHLCCYKTPW
modifications: not fully specified (N-terminus); ends and bridges not checked
notes: Tested as uncleaved fusion; also called Y7A mutant of Helianthamide in bar′-Helianthamide fusion form
How did the Ki (T163R HPA mutant [3]) turn out when B5 was run?
The Ki was 107 nM.

What about the Ki [4] of the same binder?
The Ki was 5 nM.
